In PMC3359993:
Where two headings read alike, the source gives them in different places.

T1: Rel-49, the C-terminal IkB domain of Relish, N-terminal StrepTagII and C-terminal His tag (Drosophila melanogaster)
T1 sequence (Q94527 whole entry, looked up): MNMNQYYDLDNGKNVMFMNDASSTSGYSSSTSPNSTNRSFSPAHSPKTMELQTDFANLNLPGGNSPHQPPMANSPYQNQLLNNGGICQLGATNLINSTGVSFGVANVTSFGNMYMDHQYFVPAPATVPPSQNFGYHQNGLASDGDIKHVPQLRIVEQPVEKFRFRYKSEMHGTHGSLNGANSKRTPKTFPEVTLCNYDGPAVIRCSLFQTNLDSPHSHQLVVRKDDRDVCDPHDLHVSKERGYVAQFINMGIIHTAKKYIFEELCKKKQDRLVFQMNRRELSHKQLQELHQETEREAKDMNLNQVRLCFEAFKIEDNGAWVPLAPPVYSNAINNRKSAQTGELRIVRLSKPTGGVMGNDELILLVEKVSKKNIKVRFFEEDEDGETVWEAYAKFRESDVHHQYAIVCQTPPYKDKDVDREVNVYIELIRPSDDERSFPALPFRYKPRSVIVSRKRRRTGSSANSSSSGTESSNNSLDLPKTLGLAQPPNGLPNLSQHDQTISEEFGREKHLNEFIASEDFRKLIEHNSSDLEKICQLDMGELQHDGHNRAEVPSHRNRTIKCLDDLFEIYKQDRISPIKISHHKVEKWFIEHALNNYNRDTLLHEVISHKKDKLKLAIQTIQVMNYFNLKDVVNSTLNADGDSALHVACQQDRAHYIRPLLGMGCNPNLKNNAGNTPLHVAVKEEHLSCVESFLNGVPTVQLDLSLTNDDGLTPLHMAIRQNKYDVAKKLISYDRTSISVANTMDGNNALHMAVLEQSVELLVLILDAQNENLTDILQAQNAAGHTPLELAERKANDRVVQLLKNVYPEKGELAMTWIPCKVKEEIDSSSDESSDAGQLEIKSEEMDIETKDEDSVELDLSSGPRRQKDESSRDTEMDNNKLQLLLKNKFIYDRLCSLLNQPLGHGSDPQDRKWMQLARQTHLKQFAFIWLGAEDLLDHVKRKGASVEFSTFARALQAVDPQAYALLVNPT


How the values were obtained:
[1] = biological target: Dorsal, truncated (RHD, NLS and 20 additional C-terminal residues), StrepTagII-tagged (Drosophila melanogaster); test: SEC; gel filtration of each purified recombinant protein, compared with molecular mass standards
[2] = biological target: Ank-N5 of Microplitis demolitor bracovirus, full length, N-terminal His tag (Microplitis demolitor bracovirus (MdBV)); test: SPR; Biacore 3000, room temperature; IkB or Ank immobilised on CM5 by amine coupling (about 5500 RU); Rel homodimer as analyte, kinetic titration, five doubling injections (typically 160 nM to 2.56 uM), 60 or 90 s, 30 uL/min; 10 mM HEPES pH 7.4, 150 mM NaCl, 3.4 mM EDTA, 0.005% P20; 1:1 Langmuir …
[3] = biological target: T2, Ank-H4 of Microplitis demolitor bracovirus, full length, N-terminal His tag (Microplitis demolitor bracovirus (MdBV)); test: as above
[4] = biological target: T1, Rel-49, the C-terminal IkB domain of …; test: as above
[5] = biological target: T2, Ank-H4 of Microplitis demolitor …; test: as above; remark: listed apart in the source
[6] = biological target: Dorsal, truncated (RHD, NLS and 20 additional C-terminal residues), N-terminal thioredoxin fusion (Drosophila melanogaster); test: SEC; gel filtration of each purified recombinant protein, compared with molecular mass standards
[7] = biological target: Relish, truncated (RHD, NLS and 20 additional C-terminal residues), StrepTagII-tagged (Drosophila melanogaster); test: as above
[8] = biological target: Relish, truncated (RHD, NLS and 20 additional C-terminal residues), N-terminal thioredoxin fusion (Drosophila melanogaster); test: as above

T2 sequence (Q5I144 whole entry, the tested form may be a part): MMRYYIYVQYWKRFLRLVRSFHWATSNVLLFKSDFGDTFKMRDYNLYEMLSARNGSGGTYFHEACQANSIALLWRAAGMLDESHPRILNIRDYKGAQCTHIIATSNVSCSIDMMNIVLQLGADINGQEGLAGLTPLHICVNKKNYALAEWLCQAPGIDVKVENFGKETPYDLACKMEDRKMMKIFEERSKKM
Sequence of Ank-N5 of Microplitis demolitor bracovirus, full length, N-terminal His tag (Microplitis demolitor bracovirus (MdBV)) (Q5I126 whole entry): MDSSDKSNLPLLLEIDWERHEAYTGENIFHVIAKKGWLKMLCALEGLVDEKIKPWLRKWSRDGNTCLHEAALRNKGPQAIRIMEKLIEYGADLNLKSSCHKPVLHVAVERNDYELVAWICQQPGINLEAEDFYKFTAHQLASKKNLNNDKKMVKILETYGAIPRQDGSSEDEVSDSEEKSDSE

Row | Binder | stoichiometry N [1] | Kd [2] | koff [2] | kon [2] | Kd [3] | koff [3] | kon [3] | Kd [4] | koff [4] | kon [4] | Kd [5] | stoichiometry N [6] | stoichiometry N [7] | stoichiometry N [8]
1 | Dorsal, truncated (RHD, NLS and 20 additional C-terminal residues), StrepTagII-tagged (domain or fragment, modifications not checked) PYVKITEQPAGKALRFRYECEGRSAGSIPGVNSTPENKTYPTIEIVGYKGRAVVVVSCVTKDTPYRPHPHNLVGKEGCKKGVCTLEINSETMRAVFSNLGIQCVKKKDIEAALKAREEIRVDPFKTGFSHRFQPSSIDLNSVRLCFQVFMESEQKGRFTSPLPPVVSEPIFDKKAMSDLVICRLCSCSATVFGNTQIILLCEKVAKEDISVRFFEEKNGQSVWEAFGDFQHTDVHKQTAITFKTPRYHTLDITEPAKVFIQLRRPSDGVTSEALPFEYVPMDSDPAHLRRKRQKTGGDPMHLLLQQQQKQQLQN | 2 | 0.416 µM | 0.003 s⁻¹ | 7230 M⁻¹ s⁻¹ | 858 nM | 0.0067 s⁻¹ | 7810 M⁻¹ s⁻¹ | 783 nM | 0.00645 s⁻¹ | 8240 M⁻¹ s⁻¹ | 858 µM |  |  | 
2 | Dorsal, truncated (RHD, NLS and 20 additional C-terminal residues), N-terminal thioredoxin fusion (domain or fragment, modifications not checked) PYVKITEQPAGKALRFRYECEGRSAGSIPGVNSTPENKTYPTIEIVGYKGRAVVVVSCVTKDTPYRPHPHNLVGKEGCKKGVCTLEINSETMRAVFSNLGIQCVKKKDIEAALKAREEIRVDPFKTGFSHRFQPSSIDLNSVRLCFQVFMESEQKGRFTSPLPPVVSEPIFDKKAMSDLVICRLCSCSATVFGNTQIILLCEKVAKEDISVRFFEEKNGQSVWEAFGDFQHTDVHKQTAITFKTPRYHTLDITEPAKVFIQLRRPSDGVTSEALPFEYVPMDSDPAHLRRKRQKTGGDPMHLLLQQQQKQQLQN |  |  |  |  |  |  |  |  |  |  |  | 2 |  | 
3 | Relish, truncated (RHD, NLS and 20 additional C-terminal residues), StrepTagII-tagged (domain or fragment, modifications not checked) KHVPQLRIVEQPVEKFRFRYKSEMHGTHGSLNGANSKRTPKTFPEVTLCNYDGPAVIRCSLFQTNLDSPHSHQLVVRKDDRDVCDPHDLHVSKERGYVAQFINMGIIHTAKKYIFEELCKKKQDRLVFQMNRRELSHKQLQELHQETEREAKDMNLNQVRLCFEAFKIEDNGAWVPLAPPVYSNAINNRKSAQTGELRIVRLSKPTGGVMGNDELILLVEKVSKKNIKVRFFEEDEDGETVWEAYAKFRESDVHHQYAIVCQTPPYKDKDVDREVNVYIELIRPSDDERSFPALPFRYKPRSVIVSRKRRRTGSSANSSSSGTESSNNSLD |  | 30.3 µM | 0.00179 s⁻¹ | 59 M⁻¹ s⁻¹ | 345 nM | 0.0067 s⁻¹ | 19400 M⁻¹ s⁻¹ | 2750 nM | 0.00378 s⁻¹ | 1380 M⁻¹ s⁻¹ |  |  | 2 | 
4 | Relish, truncated (RHD, NLS and 20 additional C-terminal residues), N-terminal thioredoxin fusion (domain or fragment, modifications not checked) KHVPQLRIVEQPVEKFRFRYKSEMHGTHGSLNGANSKRTPKTFPEVTLCNYDGPAVIRCSLFQTNLDSPHSHQLVVRKDDRDVCDPHDLHVSKERGYVAQFINMGIIHTAKKYIFEELCKKKQDRLVFQMNRRELSHKQLQELHQETEREAKDMNLNQVRLCFEAFKIEDNGAWVPLAPPVYSNAINNRKSAQTGELRIVRLSKPTGGVMGNDELILLVEKVSKKNIKVRFFEEDEDGETVWEAYAKFRESDVHHQYAIVCQTPPYKDKDVDREVNVYIELIRPSDDERSFPALPFRYKPRSVIVSRKRRRTGSSANSSSSGTESSNNSLD |  |  |  |  |  |  |  |  |  |  |  |  |  | 2
